This is an account of results in patent US20220380409A1 (CALIFORNIA INSTITUTE OF TECHNOLOGY, published 2022).

In general, EC50 refers to the midpoint of the concentration-response curve. Higher therefore signals a need for much substance.

Assay [1] has as its target T1, LISDAELEAIFD (SEQ ID NO:34)-Az4-PEG-Biotin (Plasmodium falciparum, reading uncertain).
T1 peptide: LISDAELEAIFD-{Az4-PEG-biotin}
In words: in situ click bead screen of cyclic library C against LISDAELEAIFD-Az4-PEG-Biotin; hits formed a triazole linkage to the epitope peptide.

In assay [2] the target is T2, PfLDH protein (Plasmodium falciparum, UniProt Q27743 2-316).
T2 construct: also called Plasmodium falciparum LDH protein
In words: in situ click bead screen of azide-modified cyclic library C with pfLDH and alkyne-modified hevwh anchor; hit found by triazole formation with the primary ligand.

Assay [3] addresses T3, GST-PvLDH (Plasmodium berghei, UniProt P84793 1-313).
T3 construct: Printed as 'whole PvLDH' and 'GST-PvLDH'; also called whole PvLDH protein; not shown: glutathione S-transferase (GST) tag
In words: ELISA: 5 uM biotinylated ligand on a streptavidin plate, GST-PvLDH overnight, antiGST-HRP detection (FIG. 10).

Assay [4] concerns the target T2, PfLDH protein. In words: ELISA titration of PfLDH protein on the ligand (FIG. 11). For orientation: An ELISA detects its analyte on a solid surface through an enzyme-linked reagent.

Square brackets hold non-standard residues; d marks the D form. Ends that are not written are not given here. Pra = C#CC[C@H](N)C(=O)O; Az4 = not defined here; PEG = not defined here

B1: RGGIL (SEQ ID NO:5), hit 1 against LDH (peptide)
peptide: [Pra]RGGIL
modifications: triazole (positions not given here); not fully specified (bridges)
notes: On-bead library member; variable region only
Consider B1, for which, in assay [1], the binding result was “binds”.

B2: YLGHK (SEQ ID NO:14), hit 1 against pan pLDH (peptide)
peptide: YLGHK
modifications: triazole (positions not given here); also: Az4 (azide residue) at position 1, ring closed through triazole, places not given here
notes: Secondary ligand; It was found on bead by in situ click with alkyne-modified hevwh in the presence of pfLDH
On to B2, for which, in assay [2], the binding result is given as “binds”.

B3: HWSAN (SEQ ID NO:11) peptide, triazole-cyclized (peptide)
peptide: [Pra]HWSAN
modifications: triazole (positions not given here); also: biotinylated in plate assay, construct not described
notes: Variable region only; The exact biotinylated construct used on the streptavidin plate is not described; also called Hit 6
For the molecule B3, the binding result in assay [3] and in assay [1] was “binds” each time.

B4: KKIHL (SEQ ID NO:6), hit 2 against LDH (peptide)
peptide: [Pra]KKIHL
modifications: triazole (positions not given here); not fully specified (bridges)
notes: as for B1
On to B4, for which, in assay [1], the binding result was “binds”.

B5: ELYKY (SEQ ID NO:19), hit 3 against pan pLDH (peptide)
peptide: ELYKY
modifications: triazole (positions not given here); also: Az4 (azide residue) at position 1, ring closed through triazole, places not given here
notes: as for B2
With B5, the binding result in assay [2] was “binds”.

B6: ILYWK (SEQ ID NO:7), hit 3 against LDH (peptide)
peptide: [Pra]ILYWK
modifications: triazole (positions not given here); not fully specified (bridges)
notes: as for B1
As for B6, the binding result in assay [1] is given as “binds”.

B7: RCM cyclized version of the HWSAN (SEQ ID NO:11) peptide (peptide)
peptide: HWSAN
modifications: staple (positions not given here); also: RCM between olefin-bearing non-natural residues, places not given here, biotinylated
notes: also called RCM cyclic peptide; one of the RCM cyclized peptides
Molecule B7 had an EC50 in assay [4] of 2.5 nM.

B8: PLKKG (SEQ ID NO:8), hit 4 against LDH (peptide)
peptide: [Pra]PLKKG
modifications: triazole (positions not given here); not fully specified (bridges)
notes: as for B1
Regarding B8, the binding result in assay [1] is given as “binds”.
